The target in the assay is human cyclic nucleotide-gated channel β1-subunit, wild type (human) (UniProt Q14028). In words: HEK 293 plasma membrane recruitment assay.
human cyclic nucleotide-gated channel β1-subunit, wild type (human), sequence (Q14028 whole entry): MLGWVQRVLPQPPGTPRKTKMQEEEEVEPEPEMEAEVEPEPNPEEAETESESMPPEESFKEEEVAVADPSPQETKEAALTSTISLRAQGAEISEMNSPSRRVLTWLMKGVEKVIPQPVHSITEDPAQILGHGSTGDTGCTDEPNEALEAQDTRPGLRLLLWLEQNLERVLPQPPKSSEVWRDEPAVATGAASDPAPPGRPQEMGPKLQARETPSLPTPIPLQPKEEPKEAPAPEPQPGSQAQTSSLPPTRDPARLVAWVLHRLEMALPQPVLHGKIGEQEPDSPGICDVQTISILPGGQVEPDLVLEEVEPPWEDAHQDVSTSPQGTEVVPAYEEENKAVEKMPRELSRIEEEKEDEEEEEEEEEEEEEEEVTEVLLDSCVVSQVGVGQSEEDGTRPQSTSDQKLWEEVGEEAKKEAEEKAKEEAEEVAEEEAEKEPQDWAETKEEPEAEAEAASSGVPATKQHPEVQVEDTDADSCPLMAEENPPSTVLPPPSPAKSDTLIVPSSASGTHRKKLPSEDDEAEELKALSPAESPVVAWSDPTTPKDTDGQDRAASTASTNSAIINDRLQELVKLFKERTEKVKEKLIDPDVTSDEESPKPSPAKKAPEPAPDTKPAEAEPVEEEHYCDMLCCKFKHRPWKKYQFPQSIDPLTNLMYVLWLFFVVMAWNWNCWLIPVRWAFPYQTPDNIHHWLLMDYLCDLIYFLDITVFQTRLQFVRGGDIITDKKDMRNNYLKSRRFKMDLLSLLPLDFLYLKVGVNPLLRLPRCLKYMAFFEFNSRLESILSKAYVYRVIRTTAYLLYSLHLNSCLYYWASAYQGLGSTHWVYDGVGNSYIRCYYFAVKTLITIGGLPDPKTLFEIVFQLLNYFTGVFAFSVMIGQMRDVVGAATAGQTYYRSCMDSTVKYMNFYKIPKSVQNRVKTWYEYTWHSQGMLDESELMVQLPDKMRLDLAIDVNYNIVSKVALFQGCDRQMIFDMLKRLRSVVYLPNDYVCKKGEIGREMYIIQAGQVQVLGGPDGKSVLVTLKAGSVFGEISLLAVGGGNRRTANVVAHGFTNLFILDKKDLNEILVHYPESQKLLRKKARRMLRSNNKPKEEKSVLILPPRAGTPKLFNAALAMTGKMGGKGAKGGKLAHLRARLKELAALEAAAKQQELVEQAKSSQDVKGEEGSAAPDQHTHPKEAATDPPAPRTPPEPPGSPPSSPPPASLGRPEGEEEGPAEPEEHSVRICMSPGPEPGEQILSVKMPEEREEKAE

As for “ankyrin-G fused to green fluorescent protein, O70511 1-2622”, the cells with complete recruitment is 65 % of cells.

The values are drawn from publication PMC2792576.
